{
  "source": "the supplement of paper PMC9732359",
  "note": "± gives the uncertainty stated by the source.",
  "data": [
    {"test": "protein stability index of a GFP-peptide fusion (yeast GPS) (PSI 1-4); higher = more stable; sorted into four equal gates, so the index is relative within each strain", "details": "san1∆", "in_short": "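For each peptide, the protein stability index sums the read frequency in every gate after multiplying it by the gate number. Read frequencies came from plasmids that were PCR-amplified from each gate and Illumina-sequenced, with reads assigned to strains by barcodes. The gates were four equal bins of GFP/Cherry fluorescence ratio applied to mid-log yeast in leucine-free medium carrying a pooled library of tiled 17-residue yeast protein peptides fused downstream of GFP on a Cherry-expressing plasmid.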", "values": [
      {"sequence": "IDIDKLIQLGVKPLESS [SRP72]", "protein stability index": "3.04 ± 0.055"},
      {"sequence": "IDPDTKAPNAVVITFEK [RPB11]", "protein stability index": "3.09 ± 0.094"},
      {"sequence": "IDVMKSQIIPLMKKACY [SNU114]", "protein stability index": "2.77 ± 0.047"},
      {"sequence": "IDVNLNFARQLLFNNDF [RRP40]", "protein stability index": "1.36 ± 0.13"},
      {"sequence": "IEDKENSESTTQGGNVN [RPT5]", "protein stability index": "3.46 ± 0.17"},
      {"sequence": "IEELDNPMVPSSVNEDT [PRP8]", "protein stability index": "3.33 ± 0.053"},
      {"sequence": "IEGVVILKKNPDYREEE [RPN1]", "protein stability index": "3.1 ± 0.075"},
      {"sequence": "IEHPMTSAIEVLVGSCA [RPN1]", "protein stability index": "2.14 ± 0.057"},
      {"sequence": "IEIKISDPLTVFSESCS [SNU114]", "protein stability index": "2.42 ± 0.052"},
      {"sequence": "IEINEDNSQDDQDRGAA [RRI2]", "protein stability index": "3.12 ± 0.12"},
      {"sequence": "IELLCGLGKSAVNWQDK [NAS6]", "protein stability index": "3.75 ± 0.086"},
      {"sequence": "IELLSDLINILEKKGFS [LIN1]", "protein stability index": "1.28 ± 0.17"},
      {"sequence": "IELNFDAVKDFKLGKFN [QCR2]", "protein stability index": "3.31 ± 0.093"},
      {"sequence": "IEPELFNGYNPEKKEMI [FAS2]", "protein stability index": "3.33 ± 0.092"},
      {"sequence": "IERIGHLLSINYGEKEE [PCI8]", "protein stability index": "1.2 ± 0.092"},
      {"sequence": "IFLAERRILPKPSRTSR [RPS7A]", "protein stability index": "2.8 ± 0.14"},
      {"sequence": "IGAELKREESESAAVYN [SNF2]", "protein stability index": "2.84 ± 0.071"},
      {"sequence": "IGAGVPSLEVASEYIET [FAS1]", "protein stability index": "2.18 ± 0.23"},
      {"sequence": "IGARSQGAKTYLERTLD [PRE5]", "protein stability index": "3.23 ± 0.07"},
      {"sequence": "IGDDGYDLLISTLTTIS [SRB5]", "protein stability index": "1.52 ± 0.085"},
      {"sequence": "IGGLLSKVREEVGDVCI [RPO31]", "protein stability index": "2.11 ± 0.11"},
      {"sequence": "IGIVDYEAGASHGNPVV [FAS1]", "protein stability index": "3.03 ± 0.063"},
      {"sequence": "IGQSEELSDKEIYTVED [ISW2]", "protein stability index": "3.31 ± 0.17"},
      {"sequence": "IGVIQLAHYVVTAKLLG [FAS1]", "protein stability index": "1.24 ± 0.09"},
      {"sequence": "IGWCKEDPKRRADTMDF [YJL039C/NUP192]", "protein stability index": "3.47 ± 0.13"},
      {"sequence": "IHKRYIDLEAPVQIVKR [RPS20]", "protein stability index": "2.51 ± 0.14"},
      {"sequence": "IHLKQKLSESLDTRKEL [SMC3]", "protein stability index": "3.4 ± 0.18"},
      {"sequence": "IHTQLSEIKQQINKAQI [YJL039C/NUP192]", "protein stability index": "2.81 ± 0.13"},
      {"sequence": "IIERYIKSKADAWVSAA [PRP8]", "protein stability index": "2.39 ± 0.11"},
      {"sequence": "IIGHNPDENKTRVRLPS [RPL2A]", "protein stability index": "2.93 ± 0.046"},
      {"sequence": "IIKRSNGQSLSPVRSDS [YMR153W/NUP53]", "protein stability index": "2.76 ± 0.064"},
      {"sequence": "IITKNENFLKEVFQLRI [GAL11]", "protein stability index": "1.54 ± 0.11"},
      {"sequence": "IITNINAIFLSSEQDYS [YCG1]", "protein stability index": "1.58 ± 0.22"},
      {"sequence": "IIVKDKSNDSEGDFLKS [POP1]", "protein stability index": "3.14 ± 0.11"},
      {"sequence": "IKDTANDNDITVKENES [UBP6]", "protein stability index": "1.85 ± 0.075"},
      {"sequence": "IKEDIEKFDLERVTALK [SMC1]", "protein stability index": "3.41 ± 0.1"},
      {"sequence": "IKEKFDEFIKTHEDLPK [IRR1]", "protein stability index": "2.62 ± 0.065"},
      {"sequence": "IKELRSKGYPIQFLTIG [FAS1]", "protein stability index": "1.43 ± 0.096"},
      {"sequence": "IKESSKKIKGKSIQDIV [SRP21]", "protein stability index": "3.33 ± 0.046"},
      {"sequence": "IKGIREYEEWQKSVSLL [YDL116W/NUP84]", "protein stability index": "2.5 ± 0.17"},
      {"sequence": "IKGNGESDETTTDNNNS [RPT1]", "protein stability index": "3.38 ± 0.04"},
      {"sequence": "IKIEDFVDDMLRDYRFE [SNF5]", "protein stability index": "3.1 ± 0.067"},
      {"sequence": "IKILGSEGYQKTFSRLD [RPN4]", "protein stability index": "1.05 ± 0.24"},
      {"sequence": "IKKMLHLVWMKGTNDEG [YCS4]", "protein stability index": "3.19 ± 0.16"},
      {"sequence": "IKLGSTAIGIATKEGVV [PUP2]", "protein stability index": "1.34 ± 0.26"},
      {"sequence": "IKNGRIYFTVPNEFEIQ [RGR1]", "protein stability index": "2.45 ± 0.049"},
      {"sequence": "IKNIGKSLKNNFYRPLL [YML103C/NUP188]", "protein stability index": "2.7 ± 0.079"},
      {"sequence": "IKQTFKNDLFVIWSEDN [RPO21]", "protein stability index": "2.31 ± 0.058"},
      {"sequence": "IKTRTVHELSKRVHTLL [ISW2]", "protein stability index": "2.18 ± 0.17"},
      {"sequence": "IKVENLNDTTEKSKALE [SMC2]", "protein stability index": "3.35 ± 0.052"},
      {"sequence": "ILEDDFAVALKNEPDYS [CDC53]", "protein stability index": "3.24 ± 0.072"},
      {"sequence": "ILGIHTSKMNLSEDVNL [RPT2]", "protein stability index": "3 ± 0.13"},
      {"sequence": "ILINTARIHAQNYLKTY [PRE9]", "protein stability index": "2.55 ± 0.17"},
      {"sequence": "ILKLLNGFMESAIVNED [SOH1]", "protein stability index": "3.41 ± 0.17"},
      {"sequence": "ILLEPIYEVDITVHAPL [SNU114]", "protein stability index": "2.43 ± 0.085"},
      {"sequence": "ILLQHKEKLTVQDCRYS [POP1]", "protein stability index": "2.31 ± 0.05"},
      {"sequence": "ILLSHHRASPADVSIKS [POP5]", "protein stability index": "3.24 ± 0.062"},
      {"sequence": "ILNDIETLEHNPVALEQ [BRR2]", "protein stability index": "3.18 ± 0.079"},
      {"sequence": "ILPQQSKLKLKNLLRKN [ECM29]", "protein stability index": "2.01 ± 0.07"},
      {"sequence": "ILTGTPLQNNLPELWAL [SNF2]", "protein stability index": "2.15 ± 0.055"},
      {"sequence": "ILTSLMRSKLEKLTLVT [CSN9]", "protein stability index": "2.87 ± 0.06"},
      {"sequence": "ILVPDLYHLVIMKFQSL [ECM29]", "protein stability index": "1.12 ± 0.15"},
      {"sequence": "IMAKRPFDKKSNSALFR [FAS1]", "protein stability index": "2.87 ± 0.046"},
      {"sequence": "IMDNDPVLFNRQPSLHK [RPO21]", "protein stability index": "2.26 ± 0.23"},
      {"sequence": "IMWQLLDGVSYLHQNWV [SSN3]", "protein stability index": "1.23 ± 0.12"},
      {"sequence": "INAQGEEIVVVASADYE [PRP8]", "protein stability index": "2.78 ± 0.07"},
      {"sequence": "INIQKKLEPKEIVRDIL [SIR4]", "protein stability index": "2.85 ± 0.12"},
      {"sequence": "INLTQTYGISVVDVALK [NUT1]", "protein stability index": "1.76 ± 0.1"},
      {"sequence": "INQIFSPEEQRSLLQEA [GAL11]", "protein stability index": "3.53 ± 0.11"},
      {"sequence": "INSGTFVKVTKATLELL [RPL7A]", "protein stability index": "2.65 ± 0.12"},
      {"sequence": "IPDMSKNVELGWKPLRY [SNU114]", "protein stability index": "2.58 ± 0.23"},
      {"sequence": "IPGEEVEETEVPTVPPS [MED4]", "protein stability index": "2.44 ± 0.13"},
      {"sequence": "IPGMSNMMNQVGEEETS [SRP54]", "protein stability index": "2.14 ± 0.29"},
      {"sequence": "IPIGHVHVIHFQHADNS [AAR2]", "protein stability index": "2.9 ± 0.074"},
      {"sequence": "IPQDFENEVSDIDVTIV [ESC2]", "protein stability index": "2.77 ± 0.11"},
      {"sequence": "IPSIPNPIANHTVTNSP [SNF5]", "protein stability index": "2.45 ± 0.041"},
      {"sequence": "IPTKESLTRDFEQCCKE [YIL149C/MLP2]", "protein stability index": "2.62 ± 0.088"},
      {"sequence": "IPVYCFSHPAHQQRMSR [YCG1]", "protein stability index": "1.93 ± 0.046"},
      {"sequence": "IPYSRNAPAWFKLSSES [RPS13]", "protein stability index": "2.12 ± 0.074"},
      {"sequence": "IQDSNGDVKNMEDVKIQ [SWI3]", "protein stability index": "2.41 ± 0.1"},
      {"sequence": "IQEFLVVIEKRRKKILN [GRR1]", "protein stability index": "2.88 ± 0.083"},
      {"sequence": "IQEYQLCDNFNHFSLSY [COR1]", "protein stability index": "2.44 ± 0.055"},
      {"sequence": "IQKQIETIQADLNHVTE [SMC2]", "protein stability index": "2.96 ± 0.037"},
      {"sequence": "IQRTRERKKSIGSQRGR [DSN1]", "protein stability index": "2.56 ± 0.061"},
      {"sequence": "IQWYKSLLEKDIDAVNG [ISW2]", "protein stability index": "2.81 ± 0.2"},
      {"sequence": "IRAQNFKSALANLEDII [RRP6]", "protein stability index": "2.29 ± 0.091"},
      {"sequence": "IRFVCLSNCLANARDFG [BRR2]", "protein stability index": "1.72 ± 0.074"},
      {"sequence": "IRIFRSELQRLSHENNV [RPT5]", "protein stability index": "2.96 ± 0.052"},
      {"sequence": "IRIYDLGKKKATVDEFP [RPL10]", "protein stability index": "1.21 ± 0.098"},
      {"sequence": "IRKLLEKINRMIIFLKN [CSI1]", "protein stability index": "1.31 ± 0.11"},
      {"sequence": "IRKLVKNGTIVKKAVTV [RPL19A]", "protein stability index": "3.15 ± 0.12"},
      {"sequence": "IRKQPDDIINNDEPSHK [SIR2]", "protein stability index": "2.94 ± 0.04"},
      {"sequence": "IRKSETSGRYASYRICM [RPB5]", "protein stability index": "2.9 ± 0.072"},
      {"sequence": "IRKTPLAQKKAHLAEIQ [RPL3]", "protein stability index": "2.77 ± 0.12"},
      {"sequence": "ISKHSKQAIYTRATASE [RPS25A]", "protein stability index": "1.97 ± 0.072"},
      {"sequence": "ISLIPELSVVLSGIIQD [RRI2]", "protein stability index": "1.96 ± 0.12"},
      {"sequence": "ISLLKNRRKQSFVLNKN [RPN4]", "protein stability index": "3.04 ± 0.15"},
      {"sequence": "ISLRNNMFELAQQLVGV [SMC4]", "protein stability index": "1.78 ± 0.093"},
      {"sequence": "ISLSFSRPASYGYFSVG [SIR4]", "protein stability index": "1.81 ± 0.11"}
    ]}
  ]
}
